The values below come from publication PMC11417369, “DNA sequence and chromatin differentiate sequence-specific transcription factor binding in the human malaria parasite Plasmodium falciparum”.

T1: AP2-HC D1 (Plasmodium falciparum, UniProt Q8IKR9 1316-1374)
T1 sequence: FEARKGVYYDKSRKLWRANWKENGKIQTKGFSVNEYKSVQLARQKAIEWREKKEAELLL

B1: CACACA_site7641 (dsDNA)
DNA 1: TACATACACAGACACACACACATATAAATATAAATA
DNA 2: TATTTATATTTATATGTGTGTGTGTCTGTGTATGTA
B2: CACACA_site8770 (dsDNA)
DNA 1: AACAAACACAGACACACACACACACTAATATGATTA
DNA 2: TAATCATATTAGTGTGTGTGTGTGTCTGTGTTTGTT
B3: CACACA_site4398 (dsDNA)
DNA 1: AGTATACTCAAACACACACACACAAAAAAAAAAAAA
DNA 2: TTTTTTTTTTTTTGTGTGTGTGTGTTTGAGTATACT
B4: CACACA_site3056 (dsDNA)
DNA 1: AGCTCTTGTCATTTTGCACACACACCCGTATAGGTT
DNA 2: AACCTATACGGGTGTGTGTGCAAAATGACAAGAGCT
B5: CACACA_site1447 (dsDNA)
DNA 1: AAAAAAAAAAAACACACACACACACCCACAAAATAT
DNA 2: ATATTTTGTGGGTGTGTGTGTGTGTTTTTTTTTTTT
B6: CACACA_site4006 (dsDNA)
DNA 1: ATAAGGAAGGGATGCACACAAAAGGGTACATAAGAA
DNA 2: TTCTTATGTACCCTTTTGTGTGCATCCCTTCCTTAT
B7: CACACA_site1725 (dsDNA)
DNA 1: CATATATACGCATACACACACACACCCACACCCACA
DNA 2: TGTGGGTGTGGGTGTGTGTGTGTATGCGTATATATG
B8: CACACA_site5780 (dsDNA)
DNA 1: ATAAATTAAAAACACACACACATCTGGATACCCCTA
DNA 2: TAGGGGTATCCAGATGTGTGTGTGTTTTTAATTTAT
B9: CACACA_site336 (dsDNA)
DNA 1: GGAGCACCCAGACACACACACACATATATATATATA
DNA 2: TATATATATATATGTGTGTGTGTGTCTGGGTGCTCC
B10: CACACA_site1963 (dsDNA)
DNA 1: AACTTGTATATATACACACACACACTGTCTTTTTTT
DNA 2: AAAAAAAGACAGTGTGTGTGTGTATATATACAAGTT
B11: CACACA_site4316 (dsDNA)
DNA 1: TGAATAAATCAAAGCACACATACACAGACATATATA
DNA 2: TATATATGTCTGTGTATGTGTGCTTTGATTTATTCA
B12: CACACA_site4573 (dsDNA)
DNA 1: TATGCAAGGAACCACACACACACACCGAAATGTATA
DNA 2: TATACATTTCGGTGTGTGTGTGTGGTTCCTTGCATA
B13: CACACA_site6301 (dsDNA)
DNA 1: CACACGCACAGACACACACACACACGGATATAAATA
DNA 2: TATTTATATCCGTGTGTGTGTGTGTCTGTGCGTGTG
B14: CACACA_site8795 (dsDNA)
DNA 1: CTTATATATTGCCCTTCACACACACCCATATATATA
DNA 2: TATATATATGGGTGTGTGTGAAGGGCAATATATAAG
B15: CACACA_site3306 (dsDNA)
DNA 1: CAACATTTGAAACACACACACATACAAACAAACAAA
DNA 2: TTTGTTTGTTTGTATGTGTGTGTGTTTCAAATGTTG
B16: CACACA_site4465 (dsDNA)
DNA 1: AAATAATATAAATACACACACACATATATAAATACA
DNA 2: TGTATTTATATATGTGTGTGTGTATTTATATTATTT
B17: CACACA_site6334 (dsDNA)
DNA 1: AAAAAAAAAAGACACACACACAAATACAAATACATA
DNA 2: TATGTATTTGTATTTGTGTGTGTGTCTTTTTTTTTT
B18: CACACA_site803 (dsDNA)
DNA 1: AAAAAAAACAAATACACACGCACACCGAAAAAAAAA
DNA 2: TTTTTTTTTCGGTGTGCGTGTGTATTTGTTTTTTTT
B19: CACACA_site6216 (dsDNA)
DNA 1: AAAAAAAAAAGACACACACACACACGGAGATATATA
DNA 2: TATATATCTCCGTGTGTGTGTGTGTCTTTTTTTTTT
B20: CACACA_site482 (dsDNA)
DNA 1: GAATAATCCAAACACACACACACACCCGAATAAATA
DNA 2: TATTTATTCGGGTGTGTGTGTGTGTTTGGATTATTC
B21: CACACA_site118 (dsDNA)
DNA 1: ATATATATATATTACACACACACAAAAAAAATAAAG
DNA 2: CTTTATTTTTTTTGTGTGTGTGTAATATATATATAT
B22: CACACA_site758 (dsDNA)
DNA 1: TTAAACTTGAAACACACACACACACCCATATAAAAA
DNA 2: TTTTTATATGGGTGTGTGTGTGTGTTTCAAGTTTAA
B23: CACACA_site8823 (dsDNA)
DNA 1: TAATTATGCCAACACACACACACACCCAACTAAAAA
DNA 2: TTTTTAGTTGGGTGTGTGTGTGTGTTGGCATAATTA
B24: CACACA_site8328 (dsDNA)
DNA 1: TTGGGTCAAACATAAACACACACAAAAAGAAAAAAT
DNA 2: ATTTTTTCTTTTTGTGTGTGTTTATGTTTGACCCAA
B25: CACACA_site2432 (dsDNA)
DNA 1: CAAACCCACCAACACACACACACAAAAATGATTAAA
DNA 2: TTTAATCATTTTTGTGTGTGTGTGTTGGTGGGTTTG
B26: CACACA_site1505 (dsDNA)
DNA 1: TATATATATATATACACACACACAAAAAAAAAAAAA
DNA 2: TTTTTTTTTTTTTGTGTGTGTGTATATATATATATA
B27: CACACA_site8256 (dsDNA)
DNA 1: AAATAAAGCACACCGACACACACATATATATATATA
DNA 2: TATATATATATATGTGTGTGTCGGTGTGCTTTATTT
B28: CACACA_site8023 (dsDNA)
DNA 1: CCTGAACACATACATACACACACACTAATAAAAAAA
DNA 2: TTTTTTTATTAGTGTGTGTGTATGTATGTGTTCAGG
B29: CACACA_site4891 (dsDNA)
DNA 1: TAATAAATAGGACACACACACATATATATATATTAT
DNA 2: ATAATATATATATATGTGTGTGTGTCCTATTTATTA
B30: CACACA_site8113 (dsDNA)
DNA 1: CACGCATACAGACACACACACACACCGATATATATA
DNA 2: TATATATATCGGTGTGTGTGTGTGTCTGTATGCGTG
B31: CACACA_site1585 (dsDNA)
DNA 1: AAAATAAAAAAAAACACACACATACAAGCATATATA
DNA 2: TATATATGCTTGTATGTGTGTGTTTTTTTTTATTTT
B32: CACACA_site8083 (dsDNA)
DNA 1: AAAAAAAAAAAAAAAACACACACATGCACATCATAT
DNA 2: ATATGATGTGCATGTGTGTGTTTTTTTTTTTTTTTT
B33: CACACA_site7567 (dsDNA)
DNA 1: TGCAACAAAATAAACACACACACACTAACACAAAAA
DNA 2: TTTTTGTGTTAGTGTGTGTGTGTTTATTTTGTTGCA
B34: CACACA_site7659 (dsDNA)
DNA 1: AGAATAAAAAGGAACACACACACACGCATATAAATA
DNA 2: TATTTATATGCGTGTGTGTGTGTTCCTTTTTATTCT
B35: CACACA_site2860 (dsDNA)
DNA 1: AAAAAAAAAAAAAACACACACACACCCATACACATA
DNA 2: TATGTGTATGGGTGTGTGTGTGTTTTTTTTTTTTTT
B36: CACACA_site498 (dsDNA)
DNA 1: TACACCCACCAACACACACACACACCCAAAAAAAAA
DNA 2: TTTTTTTTTGGGTGTGTGTGTGTGTTGGTGGGTGTA
B37: CACACA_site6373 (dsDNA)
DNA 1: AACATACATAGACACACACACACACGCACACGCACA
DNA 2: TGTGCGTGTGCGTGTGTGTGTGTGTCTATGTATGTT
B38: CACACA_site270 (dsDNA)
DNA 1: AATACTTATTATGAAACACACACCAAAACTACATAA
DNA 2: TTATGTAGTTTTGGTGTGTGTTTCATAATAAGTATT
B39: CACACA_site7791 (dsDNA)
DNA 1: AAAATTAACCGTAACACACACACATATAAATATGTA
DNA 2: TACATATTTATATGTGTGTGTGTTACGGTTAATTTT
B40: CACACA_site5428 (dsDNA)
DNA 1: AAAAGATAATTATGCACACACACACCCAGACACAAC
DNA 2: GTTGTGTCTGGGTGTGTGTGTGCATAATTATCTTTT
B41: CACACA_site3497 (dsDNA)
DNA 1: AGCAAATACAAACACACACACACATATACATATATA
DNA 2: TATATATGTATATGTGTGTGTGTGTTTGTATTTGCT

The target of the data set is T1, AP2-HC D1. The data set can be described thus: gcPBM; about 25 ug protein; PBS, 1% milk, 0.2 mg/ml BSA, salmon testes DNA, 0.03% Triton X-100. As to conditions: tags: N-terminal GST (pGEX-4T-1), kept; label: surface-attached array probe.
Turning to B1, the binding signal was 10.4 ln median PBM intensity, better of two orientations.

As for B2, the binding signal is 11.7 ln median PBM intensity, better of two orientations. Take B3: the binding signal is 11.8 ln median PBM intensity, better of two orientations. Turning to B4, the binding signal was 11 ln median PBM intensity, better of two orientations.

In the case of B5, the binding signal was 11.7 ln median PBM intensity, better of two orientations. On to B6, for which the binding signal is 10.5 ln median PBM intensity, better of two orientations.

For B7, the binding signal was 10.7 ln median PBM intensity, better of two orientations. Next, B8: 11.5 ln median PBM intensity, better of two orientations; B9: 10.6 ln median PBM intensity, better of two orientations; B10: 10.5 ln median PBM intensity, better of two orientations. On to B11, for which the binding signal was 10.4 ln median PBM intensity, better of two orientations.

Regarding B12, the binding signal is 10.6 ln median PBM intensity, better of two orientations. For B13, the binding signal is 11.7 ln median PBM intensity, better of two orientations. B14: the binding signal was 10.6 ln median PBM intensity, better of two orientations. In the case of B15 it was 11.8 ln median PBM intensity, better of two orientations; in that of B16, 11.7 ln median PBM intensity, better of two orientations; in that of B17, 10.9 ln median PBM intensity, better of two orientations.

With B18, the binding signal is 10.9 ln median PBM intensity, better of two orientations.

Consider B19, for which the binding signal was 11.7 ln median PBM intensity, better of two orientations.

As to B20, the binding signal is 11.7 ln median PBM intensity, better of two orientations.

For B21, the binding signal is 11.7 ln median PBM intensity, better of two orientations. In the case of B22 it was 11.7 ln median PBM intensity, better of two orientations; in that of B23, 10.8 ln median PBM intensity, better of two orientations; in that of B24, 10.7 ln median PBM intensity, better of two orientations.

Regarding B25, the binding signal was 10.5 ln median PBM intensity, better of two orientations. For the molecule B26, the binding signal is 11.3 ln median PBM intensity, better of two orientations.

Consider B27, for which the binding signal is 10.4 ln median PBM intensity, better of two orientations.

As to B28, the binding signal was 11.3 ln median PBM intensity, better of two orientations. For B29, the binding signal is 10.5 ln median PBM intensity, better of two orientations. Regarding B30, the binding signal was 11.1 ln median PBM intensity, better of two orientations.

For B31, the binding signal was 11.2 ln median PBM intensity, better of two orientations.

For B32, the binding signal was 10.4 ln median PBM intensity, better of two orientations.

Consider B33, for which the binding signal is 10.5 ln median PBM intensity, better of two orientations. For the molecule B34, the binding signal was 11.7 ln median PBM intensity, better of two orientations. B35: the binding signal is 11.7 ln median PBM intensity, better of two orientations.

For B36, the binding signal was 10.5 ln median PBM intensity, better of two orientations. B37: the binding signal was 11 ln median PBM intensity, better of two orientations.

On to B38, for which the binding signal was 10.7 ln median PBM intensity, better of two orientations. B39: the binding signal is 10.4 ln median PBM intensity, better of two orientations. For B40, the binding signal is 11.7 ln median PBM intensity, better of two orientations.

As for B41, the binding signal is 11.7 ln median PBM intensity, better of two orientations.
